For this experiment, the target named is synthetic amylospheroid (synthetic ASPD) (UniProt P05067). The experiment can be described thus: SPR; biotinylated peptide on the chip, ASPD as ligand. (In general: Surface plasmon resonance follows binding to a sensor surface in real time, without labels.)

Ends that are not written are not given here.

In general, Kd refers to the free concentration of one partner at which half of the binding sites on the other are occupied at equilibrium, for simple one-to-one binding. As a reminder, the kon is the rate constant with which the complex forms. A higher kon goes with fast association.

Turning to HFNWYNLWRVQY-biotin [C-terminal biotinylated AAT01 …], the Kd came out at 57.7 nM and the kon is 7640 M⁻¹ s⁻¹. HLNWWHSWYPAR-biotin [C-terminal biotinylated AAT02 …] registered a Kd of 82.4 nM.

Turning to HLNWLSWFPSRH-biotin [C-terminal biotinylated AAT03 …], the Kd is 88.5 nM.
